The chains are these.
B1: Tpz1, two-hybrid fusion, wild type (construct limits not stated) [S. pombe] / Ccq1, two-hybrid fusion, wild type (construct limits not stated) [S. pombe] (parent complex)
chain 1: MSNCLKHPWLENGLLNLIKNADVLPIRVFKCQPLQIFEYIRYEHPIRCKLSDTEFYIEAEFSSQSISDLNNFTEKRITSLRGGIVTLGNFLIHLIPSQSGIIPWIQVESFNFQGCEGAVFGNPKAITTSALFNALLQSPYLAALANEFNRSIKEGSSYQEASLSQQEKPNDNTSNSRDIKNNIQFHWKNMTSLSIEECIIPKGQQLILEKESEENTTHGIYLEERKMAQGLHNSVSETPEVKQEDNDEDLDAYSWSSSTDSAGEIPSLPTNRKILEKIAEKPPPFESPLEDDETPDQTNEHEANQVNVSQLPLNPRGSGISGRPVESTEQLNSSLTIERSQSIQSTDSKQRVETQSHRRSKIEIFDAQDELFDRSICTTIDDSTGKLLNAEETPIKTGDLHSTSASSVISCTPPAINFTSDICNEQIELEYKRKPIPDYDFMKGLETTLQELYVEHQSKKRRLELFQLTNNHQKNSEACEMCRLGLPHGSFFELLRDWKKIEEFRNKS
chain 2: MSEINDFTNSIIINESDTKYEVYSEVNSSNRWIAKEDCPSPLEDVWLLKLAGHKRKLEEPLSCMRNEEPASKQREIEKFLRTDLDHSENDFLTQEVDEFPSTQQLFPIPLQNDTAFDSSEESITKSSKSSFSVLDIGLPMSALQRKMMHRLVQYFAFCIDHFCTGPSDSRIQEKIRLFIQSAHNIAKHPSLYDTEVRNPSAAESTNSHVSLDASNFSSYAENSSKFLFLQELFKNLSPSYSKTFFLFISNQFLANTLTQWLKSQNIDAELWAEEDAKTSQHPAIWICVSKKAPSASHFLQSCPDLSATIFYDIEAYMSVTSSLPSIQSLVLRLIHLGSIEHAIKCFQSSYNASFLVNIVGVVATLSSSSEENSEASNLSTLFEKSGNFEEILGSESHSSITEKTRDIAKNVATWLKNGENFSSWPLPPLMDLASLSVAEPRDSQPSVSQVNDTFVKSSDSTFPSSQSMQSPSKLHSLTSNATDLLSSSSLKKNFFSQQEADEVELSNNYDLQGAAVQYLQRRLRMVEDELHEAINSKNVQQSRSEELEQQISKLTDNLQEYRNTVRELKLDLEKSKKKNEDLSKLEVEKVEEIANLKKELTHLAKQQEFGFKYVQEFSNEDLQGKLIEANEKNYKLTQLLKTQKEDADFITNQYQNASTFAAEQSKEVAKLQAECKRLQAINSKVMEEVKVYNDSRVEALLAKVSSLEETLKILEQKSLPKFTPHNQSPRIIDSN

In the first assay the parent is B1. Kind of assay: yeast two-hybrid (β-galactosidase); parent: 100; read off a plot.
Take chain 1 K432A: the percent of parent is roughly 72 % WT.
With chain 1 R433A, the percent of parent was roughly 90 % WT.
Regarding chain 1 Y439A, the percent of parent was roughly 15 % WT.
For the variant chain 1 H456A, the percent of parent was roughly 100 % WT.
Turning to chain 1 L449R, the percent of parent was roughly 15 % WT.
The same measure, in the same setting: in the case of chain 1 F441A it was roughly 14 % WT; in that of chain 1 D438A, roughly 100 % WT; in that of chain 1 Y453R, roughly 16 % WT.
On to chain 1 L445R, for which the percent of parent was roughly 14 % WT.
chain 1 P435A: the percent of parent was roughly 65 % WT.

Another assay covers variants of B1. The assay is described as above. This is another data set of the same source.
Regarding chain 2 I185R, the percent of parent was roughly 13 % WT.
On to chain 2 L143R, for which the percent of parent is roughly 16 % WT.
Same read-out and setting: in the case of chain 2 E221R it was roughly 31 % WT; in that of chain 2 P189R, roughly 13 % WT.
On to chain 2 F155R, for which the percent of parent was roughly 13 % WT.
For the variant chain 2 M147R, the percent of parent was roughly 13 % WT.
As for chain 2 L151R, the percent of parent was roughly 13 % WT.
As to chain 2 L177R, the percent of parent is roughly 85 % WT.

Source of the values: publication PMC9333443, “Structural insights into Pot1-ssDNA, Pot1-Tpz1 and Tpz1-Ccq1 Interactions within fission yeast shelterin complex” (PLoS Genetics, 2022).
